Laboratory results from patent US20150044231A1 (Novo Nordisk, published 2015).
One block for each molecule: values may come before it.

Experiments:
[1] = target: His-FcγRIII (158V) (UniProt P08637); assay: SPR (BIAcore T100), Fc variant immobilised, His-FcγR as analyte
[2] = target: His-FcγRIIB (UniProt P31994); assay: as above
[3] = target: His-FcγRIIA (131H) (UniProt P12318); assay: as above
[4] = target: His-FcγRIIA (131R) (UniProt P12318); assay: as above
[5] = target: His-FcγRIII (158F) (UniProt P08637); assay: as above
His-FcγRIII (158F), sequence (P08637 17-208 limits assumed): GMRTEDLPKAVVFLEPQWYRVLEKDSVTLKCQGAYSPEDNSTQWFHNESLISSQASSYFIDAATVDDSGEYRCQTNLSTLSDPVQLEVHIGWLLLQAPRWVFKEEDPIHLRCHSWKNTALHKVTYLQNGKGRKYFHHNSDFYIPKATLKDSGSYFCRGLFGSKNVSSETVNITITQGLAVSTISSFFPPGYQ

[6] = target: His-FcγRI (UniProt P12314); assay: as above
His-FcγRI, sequence (P12314 16-288 limits assumed): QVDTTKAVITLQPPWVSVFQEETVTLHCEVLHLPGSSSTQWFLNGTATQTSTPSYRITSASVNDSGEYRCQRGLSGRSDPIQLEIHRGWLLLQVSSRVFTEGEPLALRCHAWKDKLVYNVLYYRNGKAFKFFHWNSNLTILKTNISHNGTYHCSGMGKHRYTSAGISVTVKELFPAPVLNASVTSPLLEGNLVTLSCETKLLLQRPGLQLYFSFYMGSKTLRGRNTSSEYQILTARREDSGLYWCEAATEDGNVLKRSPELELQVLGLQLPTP

[7] = target: T1, human C5a receptor (human, UniProt P21730 1-350); assay: cell-based or functional assay
T1 sequence: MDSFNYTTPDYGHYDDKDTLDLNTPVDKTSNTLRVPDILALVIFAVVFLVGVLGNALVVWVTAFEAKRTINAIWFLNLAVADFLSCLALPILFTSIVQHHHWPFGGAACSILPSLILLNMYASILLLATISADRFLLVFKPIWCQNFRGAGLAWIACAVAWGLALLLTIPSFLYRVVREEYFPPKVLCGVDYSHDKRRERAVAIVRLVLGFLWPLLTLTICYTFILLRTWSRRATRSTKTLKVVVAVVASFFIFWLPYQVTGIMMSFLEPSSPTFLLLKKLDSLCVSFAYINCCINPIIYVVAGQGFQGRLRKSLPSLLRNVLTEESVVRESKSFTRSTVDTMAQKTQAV

[8] = target: T1, human C5a receptor; assay: cell-based or functional assay; remark: listed apart in the source
[9] = target: T1, human C5a receptor; assay: cell-based or functional assay; remark: listed apart in the source
[10] = target: T1, human C5a receptor; assay: SPA, displacement of 125I-hC5a from RBL-hC5aR membranes
Procedure: (§1) A detailed description of the SPA is provided in U.S. Pat. No. 4,568,649 and protocols provided by the manufacturer (Amersham Biosciences). Briefly, receptor-carrying membrane fragments purified from RBL-hC5aR cells bind to scintillating micro particles coated with wheat germ agglutinin (WGA). […] Specific for the SPA-principle, only radio isotope and particles in immediate proximity of each other will emit light. […] The % displacement was calculated as follows: […]

[11] = target: T1, human C5a receptor; assay: SPA, unlabelled hC5a displacing 125I-hC5a from RBL-hC5aR membranes
Procedure: as §1

His-FcγRIIB, sequence (P31994 46-217 limits assumed): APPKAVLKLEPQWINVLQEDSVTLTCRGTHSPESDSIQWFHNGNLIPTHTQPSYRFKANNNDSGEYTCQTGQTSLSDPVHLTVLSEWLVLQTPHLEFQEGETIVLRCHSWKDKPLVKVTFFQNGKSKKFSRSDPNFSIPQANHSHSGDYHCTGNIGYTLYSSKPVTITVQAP
His-FcγRIIA (131H), sequence (P12318 36-218 limits assumed): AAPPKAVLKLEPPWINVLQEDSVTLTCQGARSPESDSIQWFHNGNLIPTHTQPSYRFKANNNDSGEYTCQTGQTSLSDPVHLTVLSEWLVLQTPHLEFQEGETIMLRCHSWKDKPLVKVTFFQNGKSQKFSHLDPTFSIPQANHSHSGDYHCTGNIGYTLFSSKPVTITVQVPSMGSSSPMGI
His-FcγRIIA (131R), sequence (P12318 36-218 H167R limits assumed): as the sequence (P12318 36-218 limits assumed) above, with H132R counted along it
His-FcγRIII (158V), sequence (P08637 17-208 F176V limits assumed): as the sequence (P08637 17-208 limits assumed) above, with F160V counted along it

Molecule: Ref Ab Q variable region on IgG1 L234A, L235E (antibody)
- Kd [1]: 960 nM

Molecule: Ref Ab Q variable region on IgG1 L234A, L235E, G237A, A330S and P331S (antibody)
- Kd [2]: 2100 nM

Molecule: Ref Ab Q variable region on IgG1 N297Q (antibody)
- Kd [6]: 360 nM

B1: 32F3A6 GL (antibody, human IgG1, V domains shown)
VH: EVQLVESGGGLVQPGGSLRLSCAASGFTFSSYVMHWVRQATGKGLEWVSAIDTGGGTYYADSVKGRFTISRENAKNSLYLQMNSLRAGDTAVYYCARDYYYYASGSYYKAFDIWGQGTMVTVSS
VL: EIVLTQSPGTLSLSPGERATLSCRASQSVSSRYLAWYQQKPGQAPRLLIYGASSRATGIPDRFSGSGSGTDFTLTISRLEPEDFAVYYCQQYGSPLTFGQGTKLEIKR
- IC50, Neutrophil migration (Chemotaxis) Assay [7]: 1 µg/mL
- IC50 CD11b up-regulation [8]: 0.7 µg/mL
- IC50 CD62L down-regulation [8]: 0.5 µg/mL
- IC50 Calcium-flux assay [8]: 1.8 µg/mL

B2: 32F3A6 (antibody, V domains shown)
VH: EVQLVQSGGGLVHPGGSLRLSCAGSGFTFSSYVMHWVRQAPGKGLEWVSAIDTGGGTYYADSVKGRFTISRDNAKNSLYLQMNSLRAEDMAVYYCARDYYYYASGSYYKAFDIWGQGTMVTVSS
VL: EIVLTQSPGTLSLSPGERATLSCRASQSVSSRYLAWYQQKPGQAPRLLIYGASSRATGIPDRFSGSGSGTDFTLTISRLEPEDFAVYYCQQYGSPLTFGQGTKLEIKR
notes: Human monoclonal antibody from HumAb mice, purified from hybridoma supernatant
- Migration of human neutrophils (in % compared to migration in the absence of antibody) [9]: 2%
- IC50 [10]: 1.9 nM

B4: 35F24A3 (antibody, V domains shown)
VH: EVKLVESGGGLVKPGGSLKLSCSASGFAFSNYDMSWVRQTPEKRLEWVAAFSSDGYTFYPDSLKGRFTISRDNARNTLYLQMSSLGSEDTALYCCARHADYANYPVMDYWGQGTSVTVSS
VL: DIQMTQSPSSLSASVGDRVTITCRASQGISSWLAWYQQKPEKAPKSLIYAASSLQSGVPSRFSGSGSGTDFTLTISSLQPEDFATYYCQQYNSYPRTFGQGTKVEIKR
notes: as for B2
- Migration of human neutrophils (in % compared to migration in the absence of antibody) [9]: 30%
- IC50 [10]: 2.97 nM

B7: 35F32A3 (antibody, V domains shown)
VH: QVQLVESGGGLVRPGRSLRLSCAASGFTFRDYGMHWVRQAPGKSLEWVAVIWFDGINKYYGDSVKGRFTISRDNSKNTLYLQMNSLRAEDTAMYYCVGTYFGPGTTEFFQHWGQGTLVTVSS
VL: EIVLTQSPATLSLSPGERATLSCRASQSVSSYLAWYQQKPGQAPRLLIYDASNRATGIPARFSGSGSGTDFTLTISSLEPEDFAVYYCQQRSNWPTFGPGTKVDIKR
notes: as for B2
- Migration of human neutrophils (in % compared to migration in the absence of antibody) [9]: 11%
- IC50 [10]: 0.95 nM

B8: 35F12A2 (antibody, V domains shown)
VH: QVQLVESGGGVVQPGRSLRLSCVASGFTFSNYGMHWVRQAPGKGLEWVAVIWYDGINKYYADSVKGRFTISRDNSKSTLYLQMNSLRAEDTAVYYCAGTYYTSGSSKHFQPWGQGTLVTVSS
VL: EIVLTQSPATLSLSPGERATLSCRASQSVSSYLSWYQQKPGQAPRLLIYDASNRATGIPARFSGSGSGTDFTLTISSLEPEDFAVYYCQQRSNWPTFGPGTKVDIKR
notes: as for B2
- Migration of human neutrophils (in % compared to migration in the absence of antibody) [9]: 19%
- IC50 [10]: 2.04 nM

More lines, now with the values ahead:

- Kd [3]: 640 nM
- Kd [2]: 420 nM
- Kd [4]: 950 nM
- Kd [5]: 330 nM
- Kd [6]: 0.664 nM
Molecule: Ref Ab Q variable region on IgG1 reference (antibody)

- Kd [2]: 5340 nM
Molecule: Ref Ab Q variable region on IgG2/4 V234A, G236A (antibody)

- Kd [6]: 130 nM
Molecule: Ref Ab Q variable region on IgG4 (S228P) N297Q (antibody)

- Kd [3]: 3520 nM
- Kd [2]: 1080 nM
- Kd [4]: 800 nM
- Kd [6]: 2.71 nM
Molecule: Ref Ab Q variable region on IgG4 (S228P) reference (antibody)

- Kd [3]: 220 nM
- Kd [1]: 1500 nM
- Kd [2]: 1540 nM
- Kd [4]: 2790 nM
B3: Ref Ab Q variable region on IgG2 reference (antibody, part only; not given: Variable regions of Ref Ab Q, not shown: another chain or arm of the molecule)
constant: ASTKGPSVFPLAPCSRSTSESTAALGCLVKDYFPEPVTVSWNSGALTSGVHTFPAVLQSSGLYSLSSVVTVPSSNFGTQTYTCNVDHKPSNTKVDKTVERKCCVECPPCPAPPVAGPSVFLFPPKPKDTLMISRTPEVTCVVVDVSHEDPEVQFNWYVDGVEVHNAKTKPREEQFNSTFRVVSVLTVVHQDWLNGKEYKCKVSNKGLPAPIEKTISKTKGQPREPQVYTLPPSREEMTKNQVSLTCLVKGFYPSDIAVEWESNGQPENNYKTTPPMLDSDGSFFLYSKLTVDKSRWQQGNVFSCSVMHEALHNHYTQKSLSLSPGK

- IC50 [11]: 4.1 nM
B5: human C5a (ligand, UniProt P01031 678-751, looked up)
chain: TLQKKIEEIAAKYKHSVVKKCCYDGACVNNDETCEQRAARISLGPRCIKAFTECCVVASQLRANISHKDMQLGR
notes: C5a is only a fragment of it; also called hC5a

- Kd [3]: 1030 nM
- Kd [2]: 1830 nM
B6: Ref Ab Q variable region on IgG2/IgG4 reference (antibody, part only; not given: Ref Ab Q variable regions, part only)
heavy, part: ASTKGPSVFPLAPCSRSTSESTAALGCLVKDYFPEPVTVSWNSGALTSGVHTFPAVLQSSGLYSLSSVVTVPSSNFGTQTYTCNVDHKPSNTKVDKTVERKCCVECPPCPAPPVAGPSVFLFPPKPKDTLMISRTPEVTCVVVDVSQEDPEVQFNWYVDGVEVHNAKTKPREEQFNSTYRVVSVLTVLHQDWLNGKEYKCKVSNKGLPSSIEKTISKAKGQPREPQVYTLPPSQEEMTKNQVSLTCLVKGFYPSDIAVEWESNGQPENNYKTTPPVLDSDGSFFLYSRLTVDKSRWQEGNVFSCSVMHEALHNHYTQKSLSLSLGK

- Kd [6]: 380 nM
B9: Ref Ab Q variable region on IgG4 (S228P) E233P, F234V, L235A (antibody, part only; not given: Variable regions of Ref Ab Q, not shown: another chain or arm of the molecule)
constant: ASTKGPSVFPLAPCSRSTSESTAALGCLVKDYFPEPVTVSWNSGALTSGVHTFPAVLQSSGLYSLSSVVTVPSSSLGTKTYTCNVDHKPSNTKVDKRVESKYGPPCPPCPAPPVAGGPSVFLFPPKPKDTLMISRTPEVTCVVVDVSQEDPEVQFNWYVDGVEVHNAKTKPREEQFNSTYRVVSVLTVLHQDWLNGKEYKCKVSNKGLPSSIEKTISKAKGQPREPQVYTLPPSQEEMTKNQVSLTCLVKGFYPSDIAVEWESNGQPENNYKTTPPVLDSDGSFFLYSRLTVDKSRWQEGNVFSCSVMHEALHNHYTQKSLSLSLGK
